Assay results published in the supplement of paper PMC9170038.

Test system: K4 kissing-loop RNA reporter
Assay: apparent KD of K4 kissing-loop reporter; higher = weaker reporter binding
Settings: Eterna round: R107
Experimental: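 RNA-MaP round R107: designed RNA switches with theophylline, tryptophan, arginine or FMN aptamers are transcribed on-chip within common flanks. They are titrated with a labelled K4 kissing-loop RNA reporter in RNA-MaP buffer (100 mM Tris pH 7.5, 80 mM KCl, 4 mM MgCl2), without ligand or with the indicated ligand. Median apparent KD per design.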

[1] = input ligand: theophylline 20 uM
[2] = input ligand: tryptophan 2.4 mM
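Further: bound reporter read as fluorescence of individual clusters on recovered sequencing chips by microscopy, with normalized cluster intensities fitted with a binding model.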

Sequence	apparent KD of K4 kissing-loop reporter (input ligand: FMN 200 uM) [nM]	apparent KD of K4 kissing-loop reporter (input ligand: arginine 13.2 mM) [nM]	apparent KD of K4 kissing-loop reporter (input ligand: none) [nM]	apparent KD of K4 kissing-loop reporter [1] [nM]	apparent KD of K4 kissing-loop reporter [2] [nM]
UCGAGUUGACGAAAAGUCAACUCGUGAGAUACCAGUGACGAAAGUCACCCUUGGCAGCUCACUGCCAGUGAUGUUGGUAUAUAGA [#05 K4 Theophylline A Same State]	146	80.8	105	217	87.5
CCUUCCCUUGAUAGUGAUGUUAUCAAGGACAAGGAUAUCAUCUCAAUGAGAAGGUGUCCUUGAUAACAUGGAGGUCUGAAACAGA [Omei KL FMN A Exc C v2]	279	125	132	128	139
CGCGCGGGUUUGAGAGGGUUCGCGCGAAGUGAGGAUAUUUAGGGAGAAAGAAGGCACUAUAAAAUAUAGUGAUGUUAUAUAAGGG [SSFMNA.H]	699	93.9	1110	371	342
AUAUUUAUUUAGUCACUUUUCAUAUUAUGUCAGGAUAUCGUAUUUUCGAGAAGGGACUCAUGGUAGUGAUGUUACCUAUUUCUCA [#03 K4 FMN A Exclusion]	196	382	387	404	303
AGGAUCACGUCAGUGAUGUUGACAAGAGAUACCAGAGACGAAAGUCUCCCUUGGCAGCUCAUUGUGAUCCGUGACAAAGGUCACA [Omei KL hio A SS C v2]	353	293	413	593	186
UGAUAGGACAGAAGGAGCGGGAGUGAUGUUCCCAAAAUGGAAGGUCGACAAAGUCGACCCUCCCAGGUAGGUCGCUGUCCUAUCU [ArgBX 6 #SwitchBubble #StaticStem]	91.3	101	99.6	99.2	86.7
AACUGCUAAGAGGUUAAGCACGUCAUUAUGAAGGAUAUAGAAUUCACUAGAAGGUCAUGUGCCCUGAGUGAUGUUCAGAUAGGCG [theeternabot_sameState_KL_FMN_A_25]	294	229	236	421	336
CGCUUAGUGAUGUUUGAUUUGGCGCAUGCAGAGGAUAUAGGGUGCUUUAGAAGGCUGAGGAGUGCGCCGAGUGAUGUUCGGCGCU [Exclusion FMN A GF12]	183	141	212	162	166
UGUCAUUGGUCUGAUACCAGUACCCUUGGCAGCCAAGGAGUGAUGUUCCAAGGAUACCAGUGCCCUUGGCAGCAGACCGAUGACU [TheoBS 12 #DoubleAptamer #SwitchBubble]	920	563	1120	613	901
GAUUGGCGGACGGCCGCCACUCGGACGAGUCACAGUGAUGUUGUGGUUUGCCAGUCGACUUCAUCGAGGACCGGGUUUGUCGGGC [Exclusion Tryptophan B GF 21]	592	407	497	405	349
GCAGACACGCAGUGAUGUUGCGAAACGGAAGGAGCGCGUGAAAACGCAGGUAGGUCGCCGACACAUAAAUUAUAAUUUUGUUUGC [Arginine A K4 14]	253	214	246	237	205
UGUACCGAGUCAGGAUAUAGCGUCGAAAGACGAAUCCUAGUGAUGUUAGGGAUCUGCGAAAGCAGUCUAGAAGGGACUUGGUACU [FmnBS 26 A19+U68]	275	278	295	293	291
UGCGCUGCCUGAGGAUAUAGAAACGAGUGAUGUUCGUGGAUAAGAGCCAGUGAUGUUGGGUUAUUUCUAGAAGGCAGGCAAAGUA [Exclusion FMN B GF7]	108	98.2	117	93.4	104
AAAAUAAAUCAGUGAUGUUGGUAUCUGGAUACCAGCGAUAAUAGUCGCCCUUGGCAGCCAUGGACGUACAAAAUAAGUACGUCCU [MatMod 19 - Jieux - Same State - Theophylline A]	221	117	183	170	160
UGUAAGCGCGUAGAUACCAGCAGACGAGUGAUGUUCGAGAGAUUAAGGAAAAGAAAGUAAUGCCCUUGGCAGCUAAUCAUAAGCG [whbob_Ex_Theo_B_sa94]	248	335	264	301	174
AACUGUCAAGGCCAACAUUACUGAGGUGAUACCAGCAUCGAAAGAUGCCCUUGGCAGCACCAACUUGCAGUGAUGUUGCAAGUAA [BrourdMod 13 - Jieux - Exclusion - Theophylline A]	231	203	234	307	225
UAAUCACUCGAACUGCAAGUACGAGUGGAACGAGGACCGGUACGGCCGCCACUCGAUAACUUGCAGUGAUGUUGCAAGUAAGAAU [(T)''-(K)'-(T)'-(T1)-(T2)-(K1)-(K2)_Design7]	60.5	52.4	57.2	52.8	121
GCUAUGGUAGGAAGGAGCGCUGCCUUGUUUUUACGAGUGAUGUUCGGAAGCAGGGCGUUAAAGCAGGUAGGUCGCCUACUAUAGC [Arginine B K4 22]	220	135	152	147	146
AAGUGUGUGGCGGCCGCCACUAGAAUCCAGUGAUGUUGGAGUUAUCAUAUAAUUGAUAAUCAACAUAGGACCGGGCCAUAUAGAA [Same State - Tryptophan B (Freestyle 6)]	602	441	540	511	416
GAGCGGUAGAGGCUACCGCUAUUCUGAGAAGGAGCGCAGAUGACUGCAGGUAGGUCGCUUAGAGCUUGCAGUGAUGUUGCAAGUU [Inzarier]	178	176	191	181	181
UUUAAAUAUAGUGAUGUUAUAUAACAAUGACGAGGACCGGUACGGCCGCCACUCGAGAGAGAUAAUGGUCUUACAAAUGUAAGUU [AstrosSSTryA#9]	567	646	793	822	481

Sequence	apparent KD of K4 kissing-loop reporter (input ligand: FMN 200 uM) [nM]	apparent KD of K4 kissing-loop reporter (input ligand: arginine 13.2 mM) [nM]	apparent KD of K4 kissing-loop reporter (input ligand: none) [nM]	apparent KD of K4 kissing-loop reporter [1] [nM]	apparent KD of K4 kissing-loop reporter [2] [nM]
GUUACGCAUGGAAGGAGCGCUCUCAUAUUUAAUAACACAGUGAUGUUGUGAAUUUAUAUAAAGCAGGUAGGUCGCCAUGUGUAAC [Ex Arginine B K4 6]	336	281	326	276	258
UGCUGGUCAUAGCGUAGUGUGAGCCGCUCACGAGGACCGGUACGGCCGCCACUCGUUACAAAGCAGUGAUGUUGCAAUAGGCUCU [theeternabot_sameState_KL_Trp_A_24]	332	407	339	417	156
ACGUAGUUCUAGGAUACCAGCCAAGGAGCGCAGGACAAAAGUCCUGCCGCCAGUGAUGUUGGCCCUUGGCAGCCUAGAACUACGA [Omei KL Theo B Exc B v1]	193	162	145	165	160
GCAAACCUCAGUGAUGUUGAGAAAUCGGAAGGAGCGCGUGAAAACGCAGGUAGGUCGCCGACACAUGAAGUAUCUUCGUGUUUGC [Arginine A K4 22]	276	272	316	328	243
UUAAUAAUUCAAGGAUAUGUUUUCUAUUUCGAGUGAUGUUCGGAAUUAAUAAAUUUAAAAGAUUAUACAGAAGGUGAUAAAUAGU [Cynwulf-mod#2]	87.1	92.8	85.9	115	81.1
UGAUAGGACAGAAGGAGCGGUAGUGAUGUUGCCAAAAGUAUAAGGUGUCAAAAGACACCCUGCCAGGUAGGUCGCUGUCCUAUCU	134	228	187	190	137
CCAUCGCUAUUCGAUACCAGUCAGGAGGUCUUUGGCCUCCUAAUGGAGUGAUGUUCCUUAGACCCUUGGCAGCGAAUAGUGAUGG [Theophylline B K4 14]	630	171	405	448	249
UUAGUGACAAGUCAGAUUCUGACAAUUGAUACCAGAUAGAAUUCUAUCCCUUGGCAGCAGUGAUGUUGUUGCAAAUAGUCACAUU [AK3 Exc Theophylline A]	263	209	251	242	232
GAGGGCCCUGUAGGAUAUGAGUCUAGUGAUGUUAGGCGGUCCAUGCGCGUGGCGCGUUAUGCCCUUUUAGAAGGACAGGGCUCUC [#2 Exclusion - FMN B Attempt #21 (HarryS)]	109	63	82.4	83.3	84.7
UAUAUGCAGUGAUGUUGCGGCACACUUCCGAAGGAUAUGUCCGGUGACAGAAGGUCGGUCCAUGGGACAUCACGUGUGCUUGAUG [theeternabot_exclusion_KL_FMN_A_15]	542	536	613	529	458
AGAAUAAUAAAUUUGGAGUGAUGUUCCGGACGAGGACCGGUACGGCCGCCACUCGAAAGCAGUCUGCGAAAGCAGACUGCAAGGA [Tesla SS Tryp A 1]	817	449	580	349	645
GAUUACAACAGAGUGAUGUUCUGACUUUCUCGAGGACCGGUACGGCCGCCACUCGUUAAACAAAGUGGUUUGCCAAGGCCAACUU	139	198	157	208	111
UCUGUUUCGAUGGAUACCAGUCGGCGAAUCACAGCUAUUAGCCUAGUGAUGUUAGGAUCGGACCCUUGGCAGCCAAUGGAUGCGG [theeternabot_sameState_KL_Theo_B_14]	921	750	1240	1270	732
AUUUUGGUUGAAGGAUAUUCUCCCAUCGACGCGAUAAGAUACUUUGGAAGGUUUGCAGUGAUGUUGGAAGAAGGUCAAAGUUGUA [theeternabot_exclusion_KL_FMN_B_22]	479	382	611	689	523
UAACUCUUGCAGUGAUGUUGCAAGUAAGCUCAGGAUAUCAGGAAACUGAGAAGGGAGCAUCCUGAGCUUCUGCAAGAGCUCAGAA [KL-SSFMN-A4]	254	152	184	217	189
CCCGCGUCGUUAGUGAUGUUGACUUCUGAUACCAGUCGCAGGUAGGACCCUUGGCAGCAGCAGUUUUGUUAUAUGUAGGAUCCAG [theeternabot_exclusion_KL_Theo_A_36]	727	201	717	445	490
UUCUUGAUGGAAACAUCGAGGAUUACUGAUACCAGUAUCGAUAGAUACCCUUGGCAGCAGUAUCGGUGAUCACGAGUGAUGUUCG [Ex Theophylline A K4 11]	669	576	785	757	607
GGUAGCAUGGCGGCCGCCACUAAGAGAGUGAUGUUCUCUUAGUUUUUUGAUAUAUUAUCAAUUCUUAGGACCGGGCCAUGCUACC	121	79.9	94.7	98.9	100
AAGCAGUCCCUUGUUGUCAUCGAAGAUGAACGAGGACCGGUACGGCCGCCACUCGGAGUGAUGUUCCGAAGGCUGCAAAAUAAAA [MatMod 20 - Jieux - Exclusion - Tryptophan A]	109	112	116	115	205
AAUAAAAUCACGGCCGCCACUGAUUACCAUAUUAGGAGUGAUGUUCCUAUGACUAUAUAAUUUAACAGGACCGGGUGAAUAUUUA [JR_ExcTryptoB_Sub011]	105	103	107	106	94.3
UGUGAUGAGUAGAGUGAUGUUUUGAAGGAUACCAGAGUGUUGUUAUUCCCUUGGCAGCUUGAGUGAUGUUUGAUGUUGUUGUUGU [rcrrmullin]	328	221	253	205	211
